Measurements published in US20240150490A1 (MABPRO A S, published 2024).
Numbering of substitutions follows the chain as printed.

B1: CA9hu-2_HC2LC3 (antibody, V domains shown)
VH: EVQLVESGGGLVQPGGSLKLSCAASGFTFNTNAMHWVRQASGKGLEWVGRIRSKSNNYTTYYADSVKDRFTISRDDSKSTAYLQMNSLKTEDTAVYYCVCGSWFAYWGQGTLVTVSS
VL: DIQMTQSPDSLAVSLGERATINCKSSQSLLNSSNQKNYLAWYQQKPGQPPKLLIYFTSTRQSGVPDRFSGSGSGTDFTLTISSLQAEDVAVYFCQQHYSIPLTFGQGTKVEIK
notes: Humanized from murine IV/18; also called HC2LC3 (CA9hu-2)
B2: CA9hu-2_HC3LC4 (antibody, V domains shown)
VH: QVQLVESGGGVVQPGGSLRLSCAASGFTFNTNAMHWVRQAPGRGLEWVARIRSKSNNYTTYYADSVKDRFTISRDNSKNTLYLQVNSLRAEDTAVYYCVCGSWFAYWGQGTLVTVSS
VL: B1 VL with Q3V, Y42F, L52V, S69T, F93Y, V110L
notes: Humanized from murine IV/18; also called HC3LC4 (CA9hu-2)
B3: CA9hu-2_HC3LC2 (antibody, V domains shown)
VH: B2 VH
VL: B1 VL with Q3V, Y42F, K51N, L53V, S82N, K109Q
notes: Humanized from murine IV/18; also called HC3LC2 (CA9hu-2)
B4: CA9hu-2_HC4LC2 (antibody, V domains shown)
VH: B2 VH with Q1E, G16R, R43K, V85M
VL: B1 VL with Q3V, Y42F, K51N, L53V, S82N, K109Q
notes: Humanized from murine IV/18; also called HC4LC2 (CA9hu-2)
B5: CA9hu-2_HC3LC3 (antibody, V domains shown)
VH: B2 VH
VL: B1 VL
notes: Humanized from murine IV/18; also called HC3LC3 (CA9hu-2)
B6: CA9hu-2_HC3LC1 (antibody, V domains shown)
VH: B2 VH
VL: B1 VL with I2V, Q3V, A19V, P49S, F93Y, V110L
notes: Humanized from murine IV/18; also called HC3LC1 (CA9hu-2)
B7: CA9hu-2_HC5LC1 (antibody, V domains shown)
VH: B1 VH with S79N, L112T
VL: B1 VL with I2V, Q3V, A19V, P49S, F93Y, V110L
notes: Humanized from murine IV/18; also called HC5LC1 (CA9hu-2)
B8: CA9hu-2_HC4LC5 (antibody, V domains shown)
VH: B2 VH with Q1E, G16R, R43K, V85M
VL: B1 VL with Q3V, F93Y, V110L
notes: Humanized from murine IV/18; also called HC4LC5 (CA9hu-2)
B9: CA9hu-2_HC4LC3 (antibody, V domains shown)
VH: B2 VH with Q1E, G16R, R43K, V85M
VL: B1 VL
notes: Humanized from murine IV/18; also called HC4LC3 (CA9hu-2)
B10: CA9hu-2_HC4LC4 (antibody, V domains shown)
VH: B2 VH with Q1E, G16R, R43K, V85M
VL: B1 VL with Q3V, Y42F, L52V, S69T, F93Y, V110L
notes: Humanized from murine IV/18; also called HC4LC4 (CA9hu-2)
B11: CA9hu-2_HC5LC4 (antibody, V domains shown)
VH: B1 VH with S79N, L112T
VL: B1 VL with Q3V, Y42F, L52V, S69T, F93Y, V110L
notes: Humanized from murine IV/18; also called HC5LC4 (CA9hu-2)
B12: CA9hu-2_HC5LC5 (antibody, V domains shown)
VH: B1 VH with S79N, L112T
VL: B1 VL with Q3V, F93Y, V110L
notes: Humanized from murine IV/18; also called HC5LC5 (CA9hu-2)
B13: CA9hu-2_HC5LC2 (antibody, V domains shown)
VH: B1 VH with S79N, L112T
VL: B1 VL with Q3V, Y42F, K51N, L53V, S82N, K109Q
notes: Humanized from murine IV/18; also called HC5LC2 (CA9hu-2)
B14: CA9hu-2_HC2LC4 (antibody, V domains shown)
VH: B1 VH
VL: B1 VL with Q3V, Y42F, L52V, S69T, F93Y, V110L
notes: Humanized from murine IV/18; also called HC2LC4 (CA9hu-2)
B15: CA9hu-2_HC2LC5 (antibody, V domains shown)
VH: B1 VH
VL: B1 VL with Q3V, F93Y, V110L
notes: Humanized from murine IV/18; also called HC2LC5 (CA9hu-2)
B16: CA9hu-2_HC4LC1 (antibody, V domains shown)
VH: B2 VH with Q1E, G16R, R43K, V85M
VL: B1 VL with I2V, Q3V, A19V, P49S, F93Y, V110L
notes: Humanized from murine IV/18; also called HC4LC1 (CA9hu-2)
B17: CA9hu-2_HC3LC5 (antibody, V domains shown)
VH: B2 VH
VL: B1 VL with Q3V, F93Y, V110L
notes: Humanized from murine IV/18; also called HC3LC5 (CA9hu-2)
B18: CA9hu-2_HC5LC3 (antibody, V domains shown)
VH: B1 VH with S79N, L112T
VL: B1 VL
notes: Humanized from murine IV/18; also called HC5LC3 (CA9hu-2)
B19: CA9hu-1_HC5LC3 (antibody, V domains shown)
VH: EVQLVESGGGLVQPGGSLRLSCAASGFTFTDYYMHWVRQAPGKGLEWVGFIRNKASGYTPQYSASVKGRFTISRDDSKNSLYLQMNSLKTEDTAVYYCVRGGHAGSNYWYFDVWGQGTMVTVSS
VL: DIQMTQSPSSLSASVGDRVTITCHVSQNINVWLSWYQQKPGEAPKLLIYQASNLHTGVPSRFSGSGSGTDFTLTISSLQPEDFATYYCQQGQSYPFTFGQGTKLEIK
notes: Humanized from murine VII/20; also called HC5LC3 (CA9hu-1)
B20: CA9hu-1_HC1LC2 (antibody, V domains shown)
VH: B19 VH with G49A, T90I, M119T
VL: B19 VL with S10T, E42N, D70E, S76G, E81D, A84V, L104V
notes: Humanized from murine VII/20; also called HC1LC2 (CA9hu-1)
B21: CA9hu-1_HC1LC3 (antibody, V domains shown)
VH: B19 VH with G49A, T90I, M119T
VL: B19 VL
notes: Humanized from murine VII/20; also called HC1LC3 (CA9hu-1)
B22: CA9hu-1_HC2LC5 (antibody, V domains shown)
VH: B19 VH with Q3R, V48L, K78T, V95I, M119L
VL: B19 VL with E42K, L73F, F83I
notes: Humanized from murine VII/20; also called HC2LC5 (CA9hu-1)
B23: CA9hu-1_HC1LC4 (antibody, V domains shown)
VH: B19 VH with G49A, T90I, M119T
VL: B19 VL with T22N, D70G, S76R, F83Y
notes: Humanized from murine VII/20; also called HC1LC4 (CA9hu-1)
B24: CA9hu-1_HC1LC5 (antibody, V domains shown)
VH: B19 VH with G49A, T90I, M119T
VL: B19 VL with E42K, L73F, F83I
notes: Humanized from murine VII/20; also called HC1LC5 (CA9hu-1)
B25: CA9hu-1_HC3LC3 (antibody, V domains shown)
VH: B19 VH with E1Q, E6Q, G16R, A23T, N79T, S80I, L81A, M119L
VL: B19 VL
notes: Humanized from murine VII/20; also called HC3LC3 (CA9hu-1)
B26: CA9hu-1_HC4LC5 (antibody, V domains shown)
VH: B19 VH with K43R, G49A, D76N, S77A, K78E, K89R, T90A, Q116K, M119T
VL: B19 VL with E42K, L73F, F83I
notes: Humanized from murine VII/20; also called HC4LC5 (CA9hu-1)
B27: CA9hu-1_HC4LC3 (antibody, V domains shown)
VH: B19 VH with K43R, G49A, D76N, S77A, K78E, K89R, T90A, Q116K, M119T
VL: B19 VL
notes: Humanized from murine VII/20; also called HC4LC3 (CA9hu-1)
B28: CA9hu-1_HC1LC1 (antibody, V domains shown)
VH: B19 VH with G49A, T90I, M119T
VL: B19 VL with E42K, K45N, D70H, F83I, Q100G, L104V
notes: Humanized from murine VII/20; also called HC1LC1 (CA9hu-1)
B29: CA9hu-1_HC2LC1 (antibody, V domains shown)
VH: B19 VH with Q3R, V48L, K78T, V95I, M119L
VL: B19 VL with E42K, K45N, D70H, F83I, Q100G, L104V
notes: Humanized from murine VII/20; also called HC2LC1 (CA9hu-1)
B30: CA9hu-1_HC2LC2 (antibody, V domains shown)
VH: B19 VH with Q3R, V48L, K78T, V95I, M119L
VL: B19 VL with S10T, E42N, D70E, S76G, E81D, A84V, L104V
notes: Humanized from murine VII/20; also called HC2LC2 (CA9hu-1)
B31: CA9hu-1_HC5LC2 (antibody, V domains shown)
VH: B19 VH
VL: B19 VL with S10T, E42N, D70E, S76G, E81D, A84V, L104V
notes: Humanized from murine VII/20; also called HC5LC2 (CA9hu-1)
B32: CA9hu-1_HC3LC5 (antibody, V domains shown)
VH: B19 VH with E1Q, E6Q, G16R, A23T, N79T, S80I, L81A, M119L
VL: B19 VL with E42K, L73F, F83I
notes: Humanized from murine VII/20; also called HC3LC5 (CA9hu-1)
B33: CA9hu-1_HC3LC4 (antibody, V domains shown)
VH: B19 VH with E1Q, E6Q, G16R, A23T, N79T, S80I, L81A, M119L
VL: B19 VL with T22N, D70G, S76R, F83Y
notes: Humanized from murine VII/20; also called HC3LC4 (CA9hu-1)
B34: CA9hu-1_HC2LC4 (antibody, V domains shown)
VH: B19 VH with Q3R, V48L, K78T, V95I, M119L
VL: B19 VL with T22N, D70G, S76R, F83Y
notes: Humanized from murine VII/20; also called HC2LC4 (CA9hu-1)
B35: CA9hu-1_HC2LC3 (antibody, V domains shown)
VH: B19 VH with Q3R, V48L, K78T, V95I, M119L
VL: B19 VL
notes: Humanized from murine VII/20; also called HC2LC3 (CA9hu-1)
B36: CA9hu-1_HC5LC4 (antibody, V domains shown)
VH: B19 VH
VL: B19 VL with T22N, D70G, S76R, F83Y
notes: Humanized from murine VII/20; also called HC5LC4 (CA9hu-1)

Biological target: CA IX expressed by cells (C-33a_CA IX transfectants; hypoxic BT-20, JIMT-1, 8-MG-BA and 42-MG-BA cells) (human, UniProt Q16790 38-459)
Assay: cell-based or functional assay

| Binder | ADCC reporter luminescence, C-33a_CA IX against C-33a_neo cells |
| --- | --- |
| B1 | 2 times |
| B2 | 2 times |
| B3 | 2 times |
| B4 | 2 times |
| B5 | 2 times |
| B6 | 2 times |
| B7 | 2 times |
| B8 | 2 times |
| B9 | 2 times |
| B10 | 2 times |
| B11 | 2 times |
| B12 | 2 times |
| B13 | 2 times |
| B14 | 2 times |
| B15 | 2 times |
| B16 | 2 times |
| B17 | 2 times |
| B18 | 2 times |

Biological target: T1, recombinant human CA IX (human, UniProt Q16790 38-414)
Assay: SPR (Biacore T200), antibody captured on CM5 chip, rh CA IX in flow, 25 C
Method: (§1) In order to determinate the antigen-binding affinity of humanized variants, measurements of affinity constant (KD) for antibodies binding to CA IX were performed by SPR using a Biacore 2000 (T200 in case of CA9hu-2) instrument (GE Healthcare, Piscataway, NJ USA). Each humanized antibody variant was captured on the CM5 sensor chip and recombinant human CA IX (rh CA IX; 42 kDa; R&D Systems, Inc., Minneapolis MN, USA) protein as an antigen was added to the buffer flowing over the chip. The setting details of quantitative interaction analysis between humanized antibodies and rh CA IX were as follows: flow rate 30 μl/min; analysis temperature 25° C.; analysis buffer (10mM HEPES pH 7.4, 150 mM NaCl, […], 0.05% Tween 20). Results from SPR analysis are expressed as the equilibrium dissociation constant (KD) (Table 7).

| Binder | Kd |
| --- | --- |
| B1 | 98.3 nM |
| B2 | 73.1 nM |
| B3 | 40.1 nM |
| B4 | 32.7 nM |
| B5 | 62.3 nM |
| B6 | 37.4 nM |
| B7 | 69.8 nM |
| B8 | 41.9 nM |
| B9 | 44.2 nM |
| B10 | 74.6 nM |
| B11 | 47.3 nM |
| B12 | 65.1 nM |
| B13 | 105 nM |
| B14 | 60.1 nM |
| B15 | 60.5 nM |
| B16 | 39.6 nM |
| B17 | 54.3 nM |
| B18 | 57.2 nM |

Biological target: T1, recombinant human CA IX
Assay: SPR (Biacore 2000), antibody captured on CM5 chip, rh CA IX in flow, 25 C
Method: as §1

| Binder | Kd |
| --- | --- |
| B19 | 56 nM |
| B20 | 80 nM |
| B21 | 96 nM |
| B22 | 56 nM |
| B23 | 100 nM |
| B24 | 96 nM |
| B25 | 82 nM |
| B26 | 12.3 nM |
| B27 | 10.7 nM |
| B28 | 97 nM |
| B29 | 60 nM |
| B30 | 53 nM |
| B31 | 52 nM |
| B32 | 83 nM |
| B33 | 97 nM |
| B34 | 60 nM |
| B35 | 51 nM |
| B36 | 54 nM |
